Measurements reported in FireProtDB.
Where “and” joins values, the source holds several entries; their conditions need not be identical. Equal entries are not always repeated.

Conditions: for Tm / heat capacity change of unfolding / unfolding enthalpy (calorimetric) / change of melting temperature, mutant - wild type (higher = more stable) / unfolding enthalpy (van 't Hoff): Thermal
[1] = Homo sapiens, pH 7.4, 25 °C, GdnHCl, CD, PBS, structure 1TIT
[2] = Thermotoga maritima (strain ATCC 43589 / DSM 3109 / JCM 10099 / NBRC 100826 / MSB8), pH 6.5, 25 °C, GdnHCl, Fluorescence, sodium phosphate 50 mM, NaCl 20 mM, reversible: yes
[3] = Bos taurus, pH 4.4, DSC, Sodium acetate 25 mM, NaCl 100 mM, reversible: yes
[4] = Bos taurus, pH 4.8, DSC, Sodium acetate 25 mM, NaCl 100 mM, reversible: yes
[5] = Bos taurus, pH 5.3, DSC, Sodium acetate 25 mM, NaCl 100 mM, reversible: yes
[6] = Bos taurus, pH 7.55, DSC, Tris 0.09 M, reversible: yes
[7] = Bos taurus, pH 8, DSC, Sodium acetate 25 mM, NaCl 100 mM, reversible: yes
[8] = Homo sapiens, pH 7.5, CD, Tris-HCl, NaCl, structure 1DXX
[9] = Rattus norvegicus, pH 8, 25 °C, Urea, Fluorescence, Tris-HCl 50 mM, MgCl2 4 mM, transition: 3, reversible: yes, structure 1QM4
[10] = Homo sapiens, pH 5, 25 °C, Urea, CD, sodium acetate 50 mM, structure 1TTG
[11] = Homo sapiens, pH 7.6, CD, Sodium phosphate 20 mM, NaCl 0.1 M, reversible: no, structure 1OWA
[12] = Drosophila melanogaster, pH 7.5, 15 °C, GdnHCl, CD, Tris-HCl, NaCl 50 mM, structure 1SAN
[13] = Homo sapiens, pH 5, 25 °C, Urea, Fluorescence, Sodium acetate 50 mM, reversible: yes, structure 1TEN
[14] = Bos taurus, pH 8, 30 °C, GdnHCl, CD, borate 10 mM, structure 1BP2
[15] = Homo sapiens, pH 7, CD, Phosphate 100 mM, NaCl 150 mM, structure 1DXX
[16] = Salmo salar, pH 7.1, CD, HEPES 10 mM, NaCl MgCl2 30 mM 3mM
[17] = Escherichia coli, pH 7, CD, phosphate 50 mM, reversible: yes
[18] = Bos taurus, pH 8, DSC, HEPES 50mM, NaCl 150mM, structure 1IHG
[19] = Homo sapiens, pH 7.5, Differential Scanning Fluorimetry, PBS, transition: 2, structure 1DXX
[20] = Bos taurus, pH 8, DSC, HEPES 50mM, NaCl 150mM
[21] = Equus caballus, pH 6, 20 °C, GdnHCl, CD, MES 10 mM, NaCl 0.4 M, reversible: yes
[22] = Equus caballus, pH 7, 10 °C, GdnHCl, CD, sodium phosphate 0.1 M, reversible: yes
[23] = Equus caballus, pH 7, 10 °C, GdnHCl, Fluorescence, acetate/phosphate 50 mM/50 mM/
[24] = Equus caballus, pH 7, 22 °C, GdnHCl, Fluorescence, sodium phosphate 0.1 M, reversible: yes
[25] = Equus caballus, pH 7, 23 °C, GdnHCl, SAXS, Phosphate 100 mM, transition: 2
[26] = Equus caballus, pH 7, 25 °C, GdnHCl, DSC, cacodylic acid 0.03 M, NaCl 0.1 M, reversible: yes
[27] = Equus caballus, pH 12.7, 22 °C, GdnHCl, Fluorescence, NaOH, reversible: yes

Chain of Peptidyl-prolyl cis-trans isomerase D K308A, P26882 (P26882 whole entry K308A): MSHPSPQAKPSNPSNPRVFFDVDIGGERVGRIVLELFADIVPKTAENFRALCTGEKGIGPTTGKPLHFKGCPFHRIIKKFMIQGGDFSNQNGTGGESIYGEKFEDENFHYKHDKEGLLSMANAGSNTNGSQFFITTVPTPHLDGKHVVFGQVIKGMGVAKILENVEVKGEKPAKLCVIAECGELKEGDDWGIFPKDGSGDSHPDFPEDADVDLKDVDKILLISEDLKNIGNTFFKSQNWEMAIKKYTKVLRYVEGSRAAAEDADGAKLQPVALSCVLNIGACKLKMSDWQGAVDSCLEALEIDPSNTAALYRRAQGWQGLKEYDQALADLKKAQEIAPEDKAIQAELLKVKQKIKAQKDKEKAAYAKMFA
Chain of Homeotic protein antennapedia R306E|L310R|H317R|F318R, P02833 R306E L310R H317R F318R (P02833 whole entry R306E/L310R/H317R/F318R): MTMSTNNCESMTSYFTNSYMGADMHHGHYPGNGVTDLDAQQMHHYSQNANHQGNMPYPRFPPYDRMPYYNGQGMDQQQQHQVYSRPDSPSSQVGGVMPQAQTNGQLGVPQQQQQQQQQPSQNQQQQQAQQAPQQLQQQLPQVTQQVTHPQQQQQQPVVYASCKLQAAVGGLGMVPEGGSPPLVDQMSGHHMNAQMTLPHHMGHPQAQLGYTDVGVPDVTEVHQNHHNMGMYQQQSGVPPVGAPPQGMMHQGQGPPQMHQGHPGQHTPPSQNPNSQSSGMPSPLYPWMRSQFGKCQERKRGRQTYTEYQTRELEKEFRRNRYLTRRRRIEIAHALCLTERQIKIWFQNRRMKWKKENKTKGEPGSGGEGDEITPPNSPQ
Chain of S-adenosylmethionine synthase isoform type-1 R265H, P13444 (P13444 whole entry R265H, canonical isoform): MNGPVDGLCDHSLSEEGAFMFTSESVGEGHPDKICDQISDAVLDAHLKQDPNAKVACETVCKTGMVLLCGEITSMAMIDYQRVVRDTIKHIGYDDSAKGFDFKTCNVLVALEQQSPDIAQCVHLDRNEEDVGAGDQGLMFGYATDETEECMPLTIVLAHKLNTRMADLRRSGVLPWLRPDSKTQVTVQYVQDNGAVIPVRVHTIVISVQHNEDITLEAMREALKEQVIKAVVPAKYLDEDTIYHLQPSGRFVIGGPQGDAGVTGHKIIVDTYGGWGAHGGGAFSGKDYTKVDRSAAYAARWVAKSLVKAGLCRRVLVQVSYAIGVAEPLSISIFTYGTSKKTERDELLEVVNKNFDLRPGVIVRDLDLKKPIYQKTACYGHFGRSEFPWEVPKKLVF
Chain of Carbonic anhydrase 2 wild type, P00921 (P00921 whole entry): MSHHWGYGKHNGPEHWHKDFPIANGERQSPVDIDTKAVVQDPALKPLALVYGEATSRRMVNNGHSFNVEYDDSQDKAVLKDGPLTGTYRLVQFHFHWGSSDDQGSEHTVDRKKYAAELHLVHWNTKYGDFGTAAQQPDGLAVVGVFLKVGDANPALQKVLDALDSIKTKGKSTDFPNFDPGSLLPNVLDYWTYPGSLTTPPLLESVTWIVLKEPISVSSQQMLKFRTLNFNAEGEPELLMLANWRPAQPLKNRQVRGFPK
Chain of Fibronectin D1544K, P02751 (P02751 whole entry D1544K): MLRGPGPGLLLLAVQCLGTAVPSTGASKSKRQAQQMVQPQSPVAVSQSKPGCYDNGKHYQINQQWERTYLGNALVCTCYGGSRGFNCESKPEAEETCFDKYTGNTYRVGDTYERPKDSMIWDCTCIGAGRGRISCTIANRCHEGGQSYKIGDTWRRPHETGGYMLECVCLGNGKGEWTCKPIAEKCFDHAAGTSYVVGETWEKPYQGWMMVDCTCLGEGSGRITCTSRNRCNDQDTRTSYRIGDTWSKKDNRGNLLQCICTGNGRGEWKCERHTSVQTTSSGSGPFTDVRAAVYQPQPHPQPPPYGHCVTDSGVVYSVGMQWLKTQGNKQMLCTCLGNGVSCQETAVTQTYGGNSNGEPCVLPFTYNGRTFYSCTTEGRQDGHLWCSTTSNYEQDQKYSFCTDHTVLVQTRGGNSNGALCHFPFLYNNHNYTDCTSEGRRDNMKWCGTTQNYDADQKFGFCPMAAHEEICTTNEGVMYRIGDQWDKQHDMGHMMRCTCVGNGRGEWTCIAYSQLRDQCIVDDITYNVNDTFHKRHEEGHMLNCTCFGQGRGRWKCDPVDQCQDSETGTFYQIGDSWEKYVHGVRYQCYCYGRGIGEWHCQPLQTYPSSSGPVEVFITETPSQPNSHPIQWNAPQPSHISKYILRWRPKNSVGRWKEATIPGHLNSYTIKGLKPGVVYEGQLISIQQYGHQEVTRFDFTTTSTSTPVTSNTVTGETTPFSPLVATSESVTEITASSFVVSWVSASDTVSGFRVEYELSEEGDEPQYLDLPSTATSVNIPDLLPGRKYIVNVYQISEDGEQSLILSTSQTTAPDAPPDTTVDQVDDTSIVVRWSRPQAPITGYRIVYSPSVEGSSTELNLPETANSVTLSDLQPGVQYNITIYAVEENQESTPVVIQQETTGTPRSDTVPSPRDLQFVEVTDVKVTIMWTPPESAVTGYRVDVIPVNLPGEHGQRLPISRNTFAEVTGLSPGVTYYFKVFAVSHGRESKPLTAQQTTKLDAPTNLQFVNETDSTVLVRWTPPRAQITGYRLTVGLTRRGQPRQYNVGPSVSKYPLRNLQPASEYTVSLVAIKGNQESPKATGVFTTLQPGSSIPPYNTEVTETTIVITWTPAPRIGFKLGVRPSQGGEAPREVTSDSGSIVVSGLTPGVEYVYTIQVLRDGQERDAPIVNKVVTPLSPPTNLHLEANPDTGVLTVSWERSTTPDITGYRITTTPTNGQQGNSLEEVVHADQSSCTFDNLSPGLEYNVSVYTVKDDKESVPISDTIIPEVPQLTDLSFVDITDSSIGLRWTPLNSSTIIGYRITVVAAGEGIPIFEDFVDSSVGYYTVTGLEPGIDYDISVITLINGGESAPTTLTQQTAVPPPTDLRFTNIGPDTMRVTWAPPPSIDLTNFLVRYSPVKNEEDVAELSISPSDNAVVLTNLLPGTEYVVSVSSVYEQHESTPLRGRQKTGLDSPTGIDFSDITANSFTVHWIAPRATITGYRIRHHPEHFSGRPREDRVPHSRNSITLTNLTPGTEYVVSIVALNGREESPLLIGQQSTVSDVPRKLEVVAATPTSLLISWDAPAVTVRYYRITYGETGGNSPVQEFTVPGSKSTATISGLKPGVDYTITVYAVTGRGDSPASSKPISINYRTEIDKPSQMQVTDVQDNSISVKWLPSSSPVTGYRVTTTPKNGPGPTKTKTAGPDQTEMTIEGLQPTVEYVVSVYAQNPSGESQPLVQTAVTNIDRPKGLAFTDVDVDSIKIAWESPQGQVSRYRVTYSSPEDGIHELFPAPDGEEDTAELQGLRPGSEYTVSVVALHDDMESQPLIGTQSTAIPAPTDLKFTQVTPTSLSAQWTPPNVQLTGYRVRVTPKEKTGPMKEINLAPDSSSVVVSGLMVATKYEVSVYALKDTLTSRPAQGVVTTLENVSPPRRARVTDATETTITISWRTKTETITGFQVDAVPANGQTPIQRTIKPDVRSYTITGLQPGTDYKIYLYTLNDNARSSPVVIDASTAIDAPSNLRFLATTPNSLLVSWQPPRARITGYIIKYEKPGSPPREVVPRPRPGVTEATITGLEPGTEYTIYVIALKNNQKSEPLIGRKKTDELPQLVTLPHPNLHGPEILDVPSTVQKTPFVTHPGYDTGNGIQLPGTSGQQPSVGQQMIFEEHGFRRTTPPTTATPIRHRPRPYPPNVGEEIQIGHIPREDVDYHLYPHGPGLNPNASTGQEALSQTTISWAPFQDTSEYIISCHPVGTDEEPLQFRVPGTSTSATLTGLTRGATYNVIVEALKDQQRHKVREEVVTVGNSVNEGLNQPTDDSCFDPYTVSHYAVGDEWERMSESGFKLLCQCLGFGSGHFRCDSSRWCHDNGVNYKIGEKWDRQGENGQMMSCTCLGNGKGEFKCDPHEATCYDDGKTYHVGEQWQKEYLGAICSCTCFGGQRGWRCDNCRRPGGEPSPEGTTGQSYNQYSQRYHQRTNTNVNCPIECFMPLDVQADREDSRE
Chain of Endo-1,4-beta-xylanase wild type, Q59962 (Q59962 entry or part of it): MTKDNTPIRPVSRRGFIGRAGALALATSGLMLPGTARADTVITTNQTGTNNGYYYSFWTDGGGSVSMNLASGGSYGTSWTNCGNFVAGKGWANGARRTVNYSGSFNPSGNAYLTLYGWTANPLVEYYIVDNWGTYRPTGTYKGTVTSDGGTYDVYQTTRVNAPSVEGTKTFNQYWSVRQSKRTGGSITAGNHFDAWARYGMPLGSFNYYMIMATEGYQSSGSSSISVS
Chain of Cytochrome c wild type, P00004 (P00004 whole entry): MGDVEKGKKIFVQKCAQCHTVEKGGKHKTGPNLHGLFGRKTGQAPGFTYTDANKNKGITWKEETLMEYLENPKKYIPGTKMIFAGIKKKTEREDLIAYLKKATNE
Chain of Creatine kinase B-type wild type, P00567 (P00567 whole entry): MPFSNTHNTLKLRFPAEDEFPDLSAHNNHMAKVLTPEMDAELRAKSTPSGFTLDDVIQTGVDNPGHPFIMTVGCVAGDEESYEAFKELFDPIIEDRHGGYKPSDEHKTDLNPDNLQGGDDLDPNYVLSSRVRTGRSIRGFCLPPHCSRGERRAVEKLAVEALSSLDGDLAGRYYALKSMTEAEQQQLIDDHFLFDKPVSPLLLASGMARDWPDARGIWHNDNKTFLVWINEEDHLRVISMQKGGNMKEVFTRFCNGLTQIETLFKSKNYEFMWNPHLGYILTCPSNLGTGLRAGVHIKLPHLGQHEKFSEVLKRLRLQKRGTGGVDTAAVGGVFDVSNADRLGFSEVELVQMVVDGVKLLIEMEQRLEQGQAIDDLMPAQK
Chain of Cold shock-like protein wild type, O54310 (O54310 whole entry): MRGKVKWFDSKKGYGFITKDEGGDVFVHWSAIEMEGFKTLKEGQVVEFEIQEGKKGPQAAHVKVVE
Chain of Cytochrome c wild type, P62894 (P62894 whole entry): as the sequence (P00004 whole entry) above, with T48S, K61G, T90G counted along it

## Cytochrome c wild type, P62894
Bos taurus, pH 6.5, 25 °C, GdnHCl, CD, HCl 0.1 M, reversible: yes
  unfolding free energy: 15.4 kcal/mol

## Titin L12736A, Q8WZ42
[1]
  ddG of mutation (higher = less stable): 5.27 kcal/mol

## Creatine kinase M-type wild type, P00563
Oryctolagus cuniculus, pH 8, DSC, Hepes-NaOH 30 mM, NaCl 0.1 M, reversible: No
  Tm: 53.7 °C and 53.8 °C

## Cold shock-like protein wild type, O54310
[2]
  denaturant m value: 1.34 kcal/mol/M
  unfolding free energy: 3.35 kcal/mol

## Carbonic anhydrase 2 wild type, P00921
[3]
  Tm: 39 °C
  heat capacity change of unfolding: 4 kcal/mol/K
[4]
  Tm: 48 °C
  heat capacity change of unfolding: 4 kcal/mol/K
[5]
  Tm: 56 °C
  heat capacity change of unfolding: 4 kcal/mol/K
[6]
  Tm: 62.5 °C
  heat capacity change of unfolding: 3.9 kcal/mol/K
[7]
  Tm: 64 °C
  heat capacity change of unfolding: 3.8 kcal/mol/K
  unfolding enthalpy (calorimetric): 190 kcal/mol

## Dystrophin, P11532 L427P
[8]
  Tm: 50 °C
  change of melting temperature, mutant - wild type (higher = more stable): -3.4 °C

## S-adenosylmethionine synthase isoform type-1 R265H, P13444
[9]
  denaturant m value: 1.15 kcal/mol/M
  denaturant midpoint (higher = more stable): 3.82 M
  unfolding free energy: 4.41 kcal/mol

## Fibronectin P1619A, P02751
[10]
  ddG of mutation (higher = less stable): 0.42 kcal/mol

## Fibronectin D1544K, P02751
Homo sapiens, pH 2.4, CD, glycine hydrochloride 20 mM, NaCl 0.1 M, reversible: yes, structure 1TTG
  Tm: 69 °C
Homo sapiens, pH 2.4, CD, glycine hydrochloride 20 mM, NaCl 1 M, reversible: yes, structure 1TTG
  Tm: 77 °C
Homo sapiens, pH 7, CD, sodium phosphate 20 mM, NaCl 0.1 M, reversible: yes, structure 1TTG
  Tm: 70 °C
Homo sapiens, pH 7, CD, sodium phosphate 20 mM, NaCl 1 M, reversible: yes, structure 1TTG
  Tm: 78 °C

## Twitchin, Q23551 Y4220F
Caenorhabditis elegans, pH 7, 20 °C, Urea, Fluorescence, Sodium phosphate 50 mM, reversible: yes, structure 1WIT
  ddG of mutation (higher = less stable): -2.15 kcal/mol

## Titin V12689A, Q8WZ42
[1]
  ddG of mutation (higher = less stable): 2.37 kcal/mol

## Spectrin alpha chain, erythrocytic 1, P02549 A2023V
[11]
  Tm: 60.5 °C
  change of melting temperature, mutant - wild type (higher = more stable): -2 °C

## Homeotic protein antennapedia R306E|L310R|H317R|F318R, P02833 R306E L310R H317R F318R
[12]
  denaturant m value: 1.6 kcal/mol/M and 0.79 kcal/mol/M
  denaturant midpoint (higher = more stable): 2.14 M and 1.32 M

## Dystrophin, P11532 C10S C188S
Homo sapiens, pH 7, CD, NaH2PO4, NaCl, reversible: no, structure 1DXX
  Tm: 61 °C
Homo sapiens, pH 7, Fluorescence, NaH2PO4, NaCl, reversible: no, structure 1DXX
  Tm: 62.4 °C
Homo sapiens, pH 7, Urea, CD, NaH2PO4, NaCl, reversible: yes, structure 1DXX
  unfolding free energy: 9.81 kcal/mol
Homo sapiens, pH 7, Urea, Fluorescence, NaH2PO4, NaCl, reversible: yes, structure 1DXX
  unfolding free energy: 12.8 kcal/mol

## Tenascin, P24821 Y869A
[13]
  ddG of mutation (higher = less stable): -1.88 kcal/mol

## Cell division control protein 42 homolog wild type, P60953
Homo sapiens, DSC, 1 X - PBS, Mg2+ 0.5 mM
  Tm: 63.5 °C

## Tenascin, P24821 Y869F
[13]
  ddG of mutation (higher = less stable): -3.22 kcal/mol

## Phospholipase A2 H70A, P00593
[14]
  ddG of mutation (higher = less stable): 3.1 kcal/mol
  denaturant m value: 1.02 kcal/mol/M
  denaturant midpoint (higher = more stable): 6.3 M
  unfolding free energy: 6.4 kcal/mol

## Phospholipase A2 H70Q, P00593
[14]
  ddG of mutation (higher = less stable): 0.6 kcal/mol
  denaturant m value: 1.34 kcal/mol/M
  denaturant midpoint (higher = more stable): 6.6 M
  unfolding free energy: 8.9 kcal/mol

## Dystrophin, P11532 Y231N
[15]
  Tm: 43 °C
  change of melting temperature, mutant - wild type (higher = more stable): -15 °C

## Tropomyosin alpha-1 chain wild type, Q91472
[16]
  Tm: 37 °C

## Tropomyosin alpha-1 chain G24A, Q91472
[16]
  Tm: 36.9 °C
  change of melting temperature, mutant - wild type (higher = more stable): -0.1 °C

## Soluble cytochrome b562 wild type, P0ABE7
Escherichia coli, pH 7, 20 °C, Urea, CD, Potassium phosphate 50 mM, reversible: yes
  unfolding free energy: 6.6 kcal/mol and 3.2 kcal/mol
[17]
  heat capacity change of unfolding: 2.4 kcal/mol/K and 1.1 kcal/mol/K
  unfolding enthalpy (van 't Hoff): 94 kcal/mol and 53 kcal/mol

## Peptidyl-prolyl cis-trans isomerase D K308A, P26882
[18]
  Tm: 45 °C
  change of melting temperature, mutant - wild type (higher = more stable): -0.07 °C
  unfolding enthalpy (calorimetric): 155 kcal/mol

## Dystrophin, P11532 L172H
[19]
  Tm: 42.1 °C
  change of melting temperature, mutant - wild type (higher = more stable): -1.28 °C

## Titin I12699A, Q8WZ42
[1]
  ddG of mutation (higher = less stable): 2.89 kcal/mol

## Soluble cytochrome b562 A62G, P0ABE7
Escherichia coli, pH 5, 25 °C, Urea, Fluorescence, NaAc 50 mM, structure 6BQG
  ddG of mutation (higher = less stable): 0.57 kcal/mol

## Titin V12762A, Q8WZ42
[1]
  ddG of mutation (higher = less stable): 4.78 kcal/mol

## Titin L12717A, Q8WZ42
[1]
  ddG of mutation (higher = less stable): 2.67 kcal/mol

## S-adenosylmethionine synthase isoform type-1 wild type, P13444
Rattus norvegicus, pH 8, 25 °C, Urea, Fluorescence, Tris-HCl 50 mM, MgCl2 4 mM, transition: 3, reversible: yes
  unfolding free energy: 6.12 kcal/mol and 4.41 kcal/mol

## MKLWFSTLKLKKAA [wild type]
Bacillus licheniformis, pH 5, Fluorescence, Sodium acetate 50 mM, reversible: no
  Tm: 65 °C
Bacillus licheniformis, pH 6, Fluorescence, Sodium phosphate 50 mM
  Tm: 64.7 °C
Bacillus licheniformis, pH 7, Fluorescence, Sodium phosphate 50 mM, reversible: yes
  unfolding enthalpy (van 't Hoff): 99.9 kcal/mol and 112 kcal/mol and 164 kcal/mol
Bacillus licheniformis, pH 9, Fluorescence, Sodium pyrophosphate 50 mM, reversible: yes
  Tm: 56.5 °C

## Fibronectin P1624A, P02751
[10]
  ddG of mutation (higher = less stable): 0.21 kcal/mol

## Peptidyl-prolyl cis-trans isomerase D wild type, P26882
[20]
  Tm: 45.1 °C
  unfolding enthalpy (calorimetric): 165 kcal/mol

## Phospholipase A2, major isoenzyme N111D, P00592
Sus scrofa, pH 7, 20 °C, GdnHCl, Absorbance, Tris 5 mM, reversible: yes, structure 1P2P
  unfolding free energy: 0.19 kcal/mol

## Endo-1,4-beta-xylanase wild type, Q59962
Streptomyces sp. S38, pH 7.5, DSC, MOPS 20 mM, NaCl 100 mM, reversible: No
  unfolding enthalpy (calorimetric): 108 kcal/mol and 125 kcal/mol and 127 kcal/mol

## Fibronectin Y1605F, P02751
Homo sapiens, pH 5, 25 °C, Urea, Fluorescence, Sodium acetate 50 mM, reversible: yes, structure 1TTG
  ddG of mutation (higher = less stable): -2.03 kcal/mol

## Tropomyosin alpha-1 chain G27A, Q91472
[16]
  Tm: 37.3 °C
  change of melting temperature, mutant - wild type (higher = more stable): 0.3 °C

## Cytochrome c wild type, P00004
Equus caballus, pH 1.7, 20 °C, HCl, CD, HCl 9 mM
  unfolding free energy: 3.3 kcal/mol
Equus caballus, pH 4.9, 10 °C, GdnHCl, Fluorescence, sodium acetate 0.2 M
  unfolding free energy: 8.2 kcal/mol
[21]
  denaturant m value: 1.61 kcal/mol/M
  denaturant midpoint (higher = more stable): 1.27 M
  unfolding free energy: 2.04 kcal/mol
Equus caballus, pH 6.5, 25 °C, GdnHCl, CD, HCl 0.1 M, reversible: yes
  unfolding free energy: 12.7 kcal/mol
[22]
  denaturant m value: 3.8 kcal/mol/M and 3.2 kcal/mol/M
  unfolding free energy: 20.4 kcal/mol and 12.1 kcal/mol
[23]
  denaturant m value: 3.9 kcal/mol/M
  denaturant midpoint (higher = more stable): 2.67 M
  unfolding free energy: 10.4 kcal/mol
Equus caballus, pH 7, 21 °C, GdnHCl, Absorbance, phosphate 10 mM
  unfolding free energy: 8.5 kcal/mol
Equus caballus, pH 7, 21 °C, GdnHCl, CD, phosphate 10 mM
  unfolding free energy: 8.4 kcal/mol
Equus caballus, pH 7, 21 °C, GdnHCl, Fluorescence, phosphate 10 mM
  unfolding free energy: 7.4 kcal/mol
[24]
  denaturant midpoint (higher = more stable): 5 M
  unfolding free energy: 18 kcal/mol
[25]
  denaturant m value: 4.1 kcal/mol/M and 2.5 kcal/mol/M
  unfolding free energy: 10.7 kcal/mol and 7.2 kcal/mol
Equus caballus, pH 7, 25 °C, GdnHCl, Absorbance, cacodylate 0.03 M, KCl 0.1 M, reversible: yes
  unfolding free energy: 8.7 kcal/mol
[26]
  denaturant m value: 2 kcal/mol/M
  denaturant midpoint (higher = more stable): 2.54 M
  unfolding free energy: 6 kcal/mol
Equus caballus, pH 7, 25 °C, SDS, CD, Phosphate 50 mM
  unfolding free energy: 3.59 kcal/mol
[27]
  denaturant midpoint (higher = more stable): 2.6 M
  unfolding free energy: 3 kcal/mol

## Phospholipase A2, major isoenzyme wild type, P00592
Sus scrofa, pH 7, 20 °C, GdnHCl, Absorbance, Tris 5 mM, reversible: yes
  unfolding free energy: 0 kcal/mol

## Creatine kinase B-type wild type, P00567
Oryctolagus cuniculus, pH 7.4, 22 °C, GdnHCl, CD, Sodium phosphate 100 mM
  unfolding free energy: 6.94 kcal/mol
Oryctolagus cuniculus, pH 8, DSC, HEPES-NaOH 30 mM, reversible: no
  Tm: 55.9 °C
